Consider six molecules from patent US8101379B2, “Preparation of low bleeding anticoagulant fusion protein and its use” (Institute of Radiation Medicine Academy of Military Medical …, priority 2006, dated 2012).

Data set [1] has as its system T1, EPR-HV2 (EH), hirudin HV2 with EPR linked to its N-terminus.
T1 sequence: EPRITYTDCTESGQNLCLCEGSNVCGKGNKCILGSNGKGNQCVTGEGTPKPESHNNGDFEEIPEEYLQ

Data set [2] deals with TH, hirudin linked at its amino-terminal with an oligopeptide recognizable and cleavable by thrombin.
The test system of data set [3] is T2, GVYAR-HV2 (GH), hirudin HV2 with GVYAR linked to its N-terminus.
T2 sequence: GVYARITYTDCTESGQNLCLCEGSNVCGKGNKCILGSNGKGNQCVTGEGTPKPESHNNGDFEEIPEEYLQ

The test system of data set [4] is FH, hirudin linked at its amino-terminal with an oligopeptide recognizable and cleavable by blood coagulation factor Xa.
Data set [5] has as its system rat carotid artery thrombosis model. Nature of the data set: Time needed for thrombogenesis in rat carotid artery thrombosis model. The format is in vivo. The conditions noted are these: for Time needed for thrombogenesis: rat carotid artery, X ± SD, 10 animals; for time needed for thrombogenesis (in words): rat carotid artery thrombosis model, statement on table 2. From the text:
(§1) (1) Analyses of GH, EH, FH and TH antithrombotic and hemorrhagic side-effects in rat carotid artery thrombosis model, and the results were listed in table 2 and 3.

Data set [6] shares this test system. Nature of the data set: Plasma TT levels in rat carotid artery thrombosis model. It counts as in vivo. The conditions noted are these: NS group = 100%, X ± SD.
Description: as §1

The next data set has as its system tail-cut mouse. The data set can be described thus: Bleeding time in hemorrhagic model of tail-cut mouse. The format is in vivo. The settings on record: for Bleeding time: X ± SD, 15 animals; for influence on hemorrhagic indexes compared with HV2 (in words): statement on table 3 and 4. Here is the method: (2) The hemorrhagic side-effects of GH, EH, TH and FH in hemorrhagic model of tail-cut mouse were analyzed, and the results were listed in Table 4.

The target of the next data set is FXIa (Homo sapiens, UniProt P03951). Nature of the data set: Anticoagulation activity by fibrin-clot method before and after cleavage by FXIa. The format is biochemical. Here is the method: (§2) EH, GH, FH and TH were cleaved respectively by thrombin, FXa and FXIa, then the activities of anticoagulation were assayed by fibrin-clot method.
A further data set has as its target FXa (Homo sapiens, UniProt P00742). Nature of the data set: Anticoagulation activity by fibrin-clot method before and after cleavage by FXa. The format is biochemical. The protocol:
as §2

Another data set deals with thrombin (Homo sapiens, UniProt P00734). Nature of the data set: Anticoagulation activity by fibrin-clot method before and after cleavage by thrombin. It counts as biochemical. The protocol:
as §2

Chain of FXa (P00742 235-488 limits assumed): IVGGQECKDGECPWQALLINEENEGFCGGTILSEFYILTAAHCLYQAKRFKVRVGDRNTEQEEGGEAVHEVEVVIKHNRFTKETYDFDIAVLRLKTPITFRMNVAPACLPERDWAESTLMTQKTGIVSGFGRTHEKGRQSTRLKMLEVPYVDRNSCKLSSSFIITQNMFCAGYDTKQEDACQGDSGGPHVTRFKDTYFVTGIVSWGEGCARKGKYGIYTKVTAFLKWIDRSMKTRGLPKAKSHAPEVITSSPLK
Chain of FXa (P00742 41-179 partner limits assumed): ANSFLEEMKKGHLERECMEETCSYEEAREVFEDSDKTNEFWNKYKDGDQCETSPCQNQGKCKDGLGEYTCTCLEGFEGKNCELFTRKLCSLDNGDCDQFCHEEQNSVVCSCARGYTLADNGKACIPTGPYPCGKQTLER
Chain of FXIa (P03951 388-625 limits assumed): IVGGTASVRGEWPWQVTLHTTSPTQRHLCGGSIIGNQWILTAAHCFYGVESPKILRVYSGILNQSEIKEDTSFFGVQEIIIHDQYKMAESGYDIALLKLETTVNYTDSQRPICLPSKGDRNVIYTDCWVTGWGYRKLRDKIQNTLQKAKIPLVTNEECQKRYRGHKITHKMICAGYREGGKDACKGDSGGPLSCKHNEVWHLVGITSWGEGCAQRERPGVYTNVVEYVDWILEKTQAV
Chain of FXIa (P03951 19-387 partner limits assumed): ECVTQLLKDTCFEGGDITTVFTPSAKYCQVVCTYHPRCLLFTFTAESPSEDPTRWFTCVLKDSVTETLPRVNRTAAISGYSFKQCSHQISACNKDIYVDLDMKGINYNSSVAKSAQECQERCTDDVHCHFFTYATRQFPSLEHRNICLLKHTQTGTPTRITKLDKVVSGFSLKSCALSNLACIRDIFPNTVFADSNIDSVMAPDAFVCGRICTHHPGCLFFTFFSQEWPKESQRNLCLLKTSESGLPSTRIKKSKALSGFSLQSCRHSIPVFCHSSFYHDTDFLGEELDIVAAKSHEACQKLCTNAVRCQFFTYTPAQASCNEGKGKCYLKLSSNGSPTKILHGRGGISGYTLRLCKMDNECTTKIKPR

On to blood coagulation factor XIa, for which the anticoagulation activity (fibrin-clot method) after 3 h of cleavage is 256 in data set [1], 0 in data set [2], 0 in data set [3] and 0 in data set [4]. Besides, the anticoagulation activity (fibrin-clot method) after 6 h of cleavage in [1] worked out at 512; in [2], 64; in data set [3] it was 0; in [4], 0. For the same molecule, the anticoagulation activity (fibrin-clot method) at 0 h of cleavage in [1], in [2], in data set [3] and in data set [4] was 0 throughout. Further, the “recognition and cleavage, read by release of anticoagulation activity” value (shortened to “recognition and cleavage, read”) in data set [3] was “GH can be recognizable and cleavable by two blood coagulation factors of FXIa and FXa respectively”.
For thrombin, the anticoagulation activity (fibrin-clot method) after 3 h of cleavage came out at 0 in [1], 0 in data set [2], 2 in data set [3] and 2 in data set [4]. The anticoagulation activity (fibrin-clot method) after 6 h of cleavage worked out at 0 in data set [1], 0 in data set [2], 8 in data set [3] and 8 in [4]. Further, the anticoagulation activity (fibrin-clot method) at 0 h of cleavage in [1], in data set [2], in data set [3] and in [4] was 0 in each case. In addition, the “recognition and cleavage, read” value in data set [1] was “EH can be recognizable and cleavable by two blood coagulation factors of thrombin and FXa respectively”; in [2] it was “TH only by thrombin”.
Consider blood coagulation factor Xa, for which the anticoagulation activity (fibrin-clot method) after 3 h of cleavage in [1] turned out to be 64; in data set [2], 32; in data set [3] it was 64; in data set [4], 64. In addition, the anticoagulation activity (fibrin-clot method) after 6 h of cleavage was found to be 128 in data set [1], 64 in data set [2], 128 in [3] and 128 in [4]. Further, the anticoagulation activity (fibrin-clot method) at 0 h of cleavage in data set [1], in [2], in data set [3] and in [4] was 0 each time. Further, the “recognition and cleavage, read” value was “EH can be recognizable and cleavable by two blood coagulation factors of thrombin and FXa respectively” in [1]; “GH can be recognizable and cleavable by two blood coagulation factors of FXIa and FXa respectively” in data set [3]; “while FH only by FXa” in [4].
On to hirudin [HV2, reference compound], for which the “Time needed for thrombogenesis” value in [5] (2 mg/kg) was 1117.00 ± 243.95 s. In addition, the “% of TT changes” value in data set [6] (2 mg/kg) is 1005.62 ± 361.28 %. Also, the Bleeding time in the data set with tail-cut mouse (tail-cut mouse, 1.5 mg/kg) was 1532.5 ± 420.74 s.

B1: GH: hirudin (HV2) linked at its amino-terminal with the oligopeptide GVYAR recognizable and cleavable by both thrombin and coagulation factor Xa (protein)
chain: GVYARITYTDCTESGQNLCLCEGSNVCGKGNKCILGSNGKGNQCVTGEGTPKPESHNNGDFEEIPEEYLQ
modifications: ends and bridges not checked
notes: hirudin (HV2) linked at its amino-terminal with the oligopeptide GVYAR recognizable and cleavable by both thrombin and coagulation factor Xa
In the case of B1, the anticoagulation activity in the data set with FXIa (0 h) was determined as 0; in the data set with FXIa (3 h), 0; in the data set with FXIa (6 h), 0; with FXa (0 h), 0; with FXa (3 h) it was 64; with FXa (6 h), 128. Also, the anticoagulation activity in the data set with thrombin (0 h) is 0; in the data set with thrombin (3 h), 2; in the data set with thrombin (6 h), 8. In addition, in data set [5], the “time needed for thrombogenesis (in words)” value is listed as “prolonged in a dose-dependent manner”. Also, the figures for the “Time needed for thrombogenesis” value in data set [5] (2 mg/kg) and in data set [5] (4 mg/kg) were 918.10 ± 204.16 s and 1006.7 ± 227.37 s, respectively. In addition, the “% of TT changes” value in data set [6] (2 mg/kg) was 104.35 ± 17.21%; in data set [6] (4 mg/kg) it was 114.94 ± 19.82 %. Also, the “influence on hemorrhagic indexes compared with HV2 (in words)” value in the data set with tail-cut mouse was “less than that of HV2”. For the same molecule, the Bleeding time worked out at 165.46 ± 142.42 s in the data set on tail-cut mouse (tail-cut mouse, 1.5 mg/kg) and 304 ± 178.99 s in the data set on tail-cut mouse (tail-cut mouse, 6 mg/kg). In the data set on tail-cut mouse (tail-cut mouse, statement), the “bleeding time compared with FH and TH (in words)” value is “significantly shorter bleeding time than that of FH and TH group”.

B2: EH: hirudin (HV2) linked at its amino-terminal with the oligopeptide EPR recognizable and cleavable by both coagulation factors XIa and Xa (protein)
chain: EPRITYTDCTESGQNLCLCEGSNVCGKGNKCILGSNGKGNQCVTGEGTPKPESHNNGDFEEIPEEYLQ
modifications: ends and bridges not checked
notes: hirudin (HV2) linked at its amino-terminal with the oligopeptide EPR recognizable and cleavable by both coagulation factors XIa and Xa
On to B2, for which the anticoagulation activity was found to be 0 with FXIa (0 h); 256 with FXIa (3 h); 512 in the data set with FXIa (6 h); 0 in the data set with FXa (0 h); 64 with FXa (3 h); 128 with FXa (6 h). For the same molecule, the anticoagulation activity with thrombin (0 h), in the data set with thrombin (3 h) and with thrombin (6 h) was 0 in each case. Further, the “time needed for thrombogenesis (in words)” value in [5] is reported as “prolonged in a dose-dependent manner”. The “Time needed for thrombogenesis” value came out at 964.10 ± 179.68 s in data set [5] (2 mg/kg) and 1083.90 ± 227.10 s in data set [5] (4 mg/kg). Besides, the “% of TT changes” value in data set [6] (2 mg/kg) was 108.41 ± 12.95%; in data set [6] (4 mg/kg), 121.81 ± 13.68 %. In the data set on tail-cut mouse, the “influence on hemorrhagic indexes compared with HV2 (in words)” value is reported as “less than that of HV2”. In addition, the Bleeding time in the data set on tail-cut mouse (tail-cut mouse, 1.5 mg/kg) came out at 203.89 ± 97.41 s; in the data set with tail-cut mouse (tail-cut mouse, 6 mg/kg), 338.77 ± 169.08 s.
